Data from the nanobody polyreactivity screen of Harvey et al. (2022).

Assay: yeast display, Sf9 membrane polyspecificity reagent, FACS + sequencing; frameworks hold sequencing errors
Outline: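 Galactose-induced (36–48 hours) yeast carrying a synthetic nanobody display library were exposed to 10% biotinylated, detergent-solubilized Sf9 membrane reagent at 4 °C for 1 hour. FACS followed streptavidin microbead enrichment, using low and high (top ~1%) gates for expression (anti-HA) and reagent binding (streptavidin). Colony PCR, MiSeq 2 × 250 sequencing and CDR-length filtering followed. Labels for polyreactivity reflect the gate of origin.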

Row | Sequence | polyreactivity (PSR sort gate)
1 | QVQLVESGGGLVQAGGSLRLSCAASGLTFLYYAMGWYRQAPGKERELVASISRGSNTNYADSVKGRFTISRDNAKNTVYLQMNSLKPEDTAVYYCAVDRRPYSGHGYDYWGQGTQVTVSS | high polyreactivity
2 | QVQLVESGGGLVQAGGSLRLSCAASGFTSFANAMGWYRQAPGKERELVASITNSGGSTHYADSVKGRFTISRDNAKNTVYLQMNSLKPEDTAVYYCAADYWIVYRIYGSKYLGKWYDYWGQGTQVTVSS | low polyreactivity
3 | QVQHVESGGGLVQAGGSLRLSCAASGRIFSINVMGWYRHAPGKERELVAAISKLGGSTYYADSVKGRFTISRDNAKNTVYLQMNSLKPEDTAVYYCAARRHYTYGNGPSRGGQMDYWGQGTQVTVSS | high polyreactivity
4 | QVQLVESGGGLVQAGGSLRLSCAASGLTFPWYAMGWYRQAPGKERELVAGISWSGGSTYYADSVKGRFTISRDNAKNTVYLQMNSLKPEDTAVYYCAARVWYYDYWGQGTQVTVSS | high polyreactivity
5 | QVQLVESGGGLVQAGGSLRLSCAASGRTLYYYTMGWYRPAPGKERELVAAIRWSTGSTYYADSVKGRFTISRDNAKNTVYLQMNSLKPEDTAVYYCNAYRYQWAQSTEYDYWGQGTQVTVSS | high polyreactivity
6 | QVQLVESRAGLVQEGGSLRVSCAASGNILGTYAMGWYRQAPGKERELVAAISSSVGSTYYADSVKARFTISRDNAKNTVYLQINSLKPEDTAVYYCAPQPRVDYEFPYRYGYWGQGSQVTVSS | low polyreactivity
7 | QVQHVESGGGLVQAGGSLRLSCDASGRIFLYKAMGWYRQAPGKERELVAAIDGGGTTYADSVKGRFTISRDNAKNTVYLQRNSLKPEDTAVYYCAADWYYQYSIYRYGYWGQGTQVTVSS | low polyreactivity
8 | QVQLVESGGGLVQAGGSLRLSCAASGRMFTYYAMGGYRQAPGKERELVAAINRGVVTTYYADSVKGRFTISRDHAKNTVDLQMNSLKPEDTAVYYCAADWFAANYYVNPVSALDYWGQGTQVTVSS | low polyreactivity
9 | QVQLVESGGRLVQAGGSIRLRCAASGNTFVYNDMGWYRQAPGKERELVADIRYSGSTYYADSVKGRFTISRDNATNTVYLEMNSLKPEDTAVYYCAKAYYVLSWMGYWGQGTQVTVSS | low polyreactivity
10 | QVQLVESGGGLVQAGGSLRLSCDASGRIFYANAMGWYRQAPGKERELVAGISSGGITNYADSVKGRFTISRDNAKNTVYLQMNSLKPEDTAVYYCAARRWSTGGYGQFDYWGQGTQVTVSS | low polyreactivity
11 | QVQLVESGGGLVQAGGSLRLSCAASGFIFYYNTMVWYRQAPGKERELVASITWSGDTTYYADSVKGRFTISRDNAKNTVYLQMNSLKPEDTAVYYCAAVHYYPYRRYDYWGQGTQVTVSS | low polyreactivity
12 | QVQLVESGGGLVQAGGSLRLSCAPSGFTFLYYVMGWYRQAPGKERELVAAINAGGGSTYYAESVKGRFTLSRDNAKNSVYLQMKSLKPADTAVYYCNARVRVRLGRNWSSYYDWGQGTQVTVSS | high polyreactivity
13 | QDQLVESGGGLVQAGGSLRLSCAASGRTFYFYAMGWYRQAPGKERELVAAISWTGGITYYADSVKGRFTISRDNAKNTVYLQMNSLKPEDTAVYYCAKKYYKVHKFDYWGQGTQVTVSS | low polyreactivity
14 | QVQLVESGGGLVQAGGSLRLSCAASGRIFGENAMGWYRQAPGKERELVAAINSGGSTSYADSVKGRFTISRDNAKNTVYLQMNSLKPEDTAVYYCAADEIQGFYTHSFEYWGQGTQVTVSS | low polyreactivity
15 | QVQLVESGGGLVQAGGSLRLSCAASGLTFDGNTMGWYRQAPGKERELVAAISFDGGNTYADSVNGRFTISRDNAKNTVYLQMNSLKPEDTAVYYDYWGQGTQVTVSS | low polyreactivity
16 | QVQLVESGGGLVQAGGSLRLSCAASGRTFNSNAMGWYRQAPGKERELVAAISGSGGSTYYADSVKGRFTISRDNAKNTVYLQMNSLKPEDTAVYYCAAAARQWKKYDYWGQGTQVTVSS | high polyreactivity
17 | QVQLVESGGGLVQAGGSLRLSCAASGRTFFVYAMGWYRQAPGKERELVASITLSGGSTYYADSVKGRFTISRDNAKNTVYLQMHSLKPEDTAVYYCAKGWSRDNDREREDEYWGQGTQVTVSS | low polyreactivity
18 | QVQLVESGGGLDQAGGSLRLSCADSGYILDRNAMGWYRHAPGKETALVAVISWGGTRTYYADSVKGRFTISRDNAKNTVYLQMISLKPEDTAVYYCARYPYYYGYAGRYDYWGQGTQVTVSS | high polyreactivity
19 | QVQLVESGGGLVQGGGSLRLSCDASGLTFPSNAMRWYRQATAKERELVASINRRGTSTFYADSVKGRFTISRDNAKNTFYLQMNSMKPEDTAVYYCNAYEGAAIRSTGRYDYWGHGTQVTVSS | low polyreactivity
20 | QVQLVESGGGLVQAGGSLRLSCAASGSTFSTNAMGWYRQAPGKERELVAAISWSDDDTYYADSVKGRFTISRDNAKNTVYLQMNSLKPEDTGVYYCAAEGVGPARVYQGGEYNYWGQGTQVTVSS | low polyreactivity
21 | QVQLVESGGGLDQAGGSLRLSCAASGFIYSSYGMGWYRQAPGKERELDAAISRSGGSTYYADSVKGRFTISRDNAKNTVYLEMNSLKPEDTAVYYCATAYSWRNADWFAYSYDYWGQGTQVTVSS | low polyreactivity
22 | QVQLVESGGGLVQAGGSLRLSCAPSGRIFSINAMGWYRQAPGKERELVAAITSGGSTKYADSVKGRFTISRDNAKNTVYLQMNSLKPEDTAVYYCAAAPGYLYWKVDYNYWGQGTQVTVSS | high polyreactivity

Row | Sequence | polyreactivity (PSR sort gate)
23 | QVQLVESGGGLVQAGGSLRLSCAASGRPFKRYAMGWYRQAPGKEREVVAAITASGGNTYYADSVKGRFTISRDNAKNTVYLQMNSLKPEDTAVYYCARGSYSGGSKYNYWGQGTQVTVSS | high polyreactivity
24 | QVQLVESGGGLVQAGGSLRLSCAASGTFYRNAMGWYRQAPGKERELVAAISSGSNTDYADSVKGRFTISRDNAKNTVYLQMNSLKPEDTAVYYCAADSLARRYDYWGQGTQVTVSS | low polyreactivity
25 | QVQLVESGGGLVQAGGSLRLSCAASGRTFTWYAMGWYRQAPGKERELVAAITNGGRRYADSVKGRFTISRDNAKTTVYLQMNSLKPEDTAVYYCATQPLTWSSYRWDWRAQFDHWGQGTQVTVSS | low polyreactivity
26 | QVQLVESGGGLVQAGGSLRLSCAASGSTFYSYAMGWYRQAPGKEREFVAAITDSGGSTYYADSVTGRFTISRDNAKNTVYLQMNSLKPEDTAVYYCAKRQYQSYIRGPYYYWGQGTQVTVSS | low polyreactivity
27 | QVQLVESGGGLVQAGGSLRLSCAASGFTFGLYGMGWYRQAPGKERELVAAISSSGGDTYYADSVKGRFTISRDNAKNTVYLQMNSLKPEDTAVYYCAADRLPQYDYWGQGTQVTVSS | low polyreactivity
28 | QVQVVESGGGLVQAGGSLRLSCAASGSILGLYAMGWYRQAPGKERELVAAITYRGGRTDYADSVKGRFTISRDNAKNTVYLQMNCLKPEDTAVYYCAAGYLPRPRYSTSYLYYYWGQGTQVTVSS | high polyreactivity
29 | QVQLEESGGGLVQAGGSLRLSCPASGLTFDCYAMGWYRQAPGKERELVAAITSVGSTYYADSVKGRFTISRDNAKNTVYLQMTSLKPEDTAVYYCAVEGVIWCFWPYEYWGQGTQVTVSS | high polyreactivity
30 | QVQLVESGGGLVQAGGSHRLSCAASGLNFGDNTMGWYRQAPGKERELVAAISGDVITTYADSVKGRFTISRDNAKNTVYLQMNSLKPEDTAVYYCNAEVKRYYSGLPQYFAGLGYWGQGTQVTVSS | low polyreactivity
31 | QVQLVESGGGLVQAGGSLRLSCDASGLTFAYYAMGWYRQAPGKERELVAAISSSGGRTYYADSVKGRFTISRDNAKNTVYLQMNSLKPEDTAVYYCAKSRYSTQTDYNYWGQGTQVTVSS | high polyreactivity
32 | QVQLVESGGGLVQAGGSLRLSCAASGRIFLINAMGWYRQARGKEWELVAAIRTGGNTYYADSVKGRFTISRDNAKTTVYLQMNSLKPEDTAVYYCAAARIYPYYRWSGAHRSDVDYWGQGTQVTVSS | low polyreactivity
33 | LVQLVESGGGLVQAGGSLRLSCAASGSTFGYNAMGWYRQAPGKERELVAAISRGAGSTYYADSVKGRFTITRDNAKYTVYLQMNCLKPEDTAVYYCAKERPRGAPAYYSRIYDYWGQGTQVTVSS | high polyreactivity
34 | QVQLVESGGGLVQAGGSLRLSCAASGSIFWRNAMGWYRQAPGKERELVAAISRVGSTNYADSVKGRFTISRDNAKNTVYLQMNSLKPEDTAVYYCAADGTVVRDFDYWGQGTQVTVSS | low polyreactivity
35 | QVQLVESGGGLVQAGGSLRLSCAASGRIFWYYAMGWYRQAPGKERELVAAISWSGGTTYYADSVKGRFTISRDNAKNTVYLQMNSLKPEDTAVYYCAAVFQYGYGEDYWGQGTQVTVSS | high polyreactivity
36 | QVQLVESGGGLVQAGGSLRLSCAASGSIFNGYAMGWYRQAPGKERELVADIRSGGSTYYADSVKGRFTISRDNAKNTVYLQMNSLKPEDTAVYYCAADTITDGYDYWGQGTQVTVSS | low polyreactivity
37 | QVQLVESGGGLVQAGGSLRLSCAASGSIFGYYAMGWYRQAPGKERELVAAISSGGNTNYADSVNGRFTISRDNAKITVYLQMTSLKPEDTAVYDCATRARYKRIRYDYWGQGTKVTVSS | high polyreactivity
38 | QVQLVESGGGLVQAGVSLRLSCAASGNIFGVYTMGWYRQAPGQEREFVAAISDGGSTYYADSVKGRFTISRDNAKNTVYLQMIRLKPEDTAVYYCAALIYGPDRVVDEFVYWGQGTQVTVSS | low polyreactivity
39 | QVQLVESGGGLVQAGGSLRLSCAASGRIFIANTMGCYRQAPGKERELVAAITQRGDSTYYADSVKGRFTISRDNAKNTVYLQMNSLKPEDTAVYYCAARYYLSSYVRYNYWGQGTQVTVSS | high polyreactivity
40 | QVQLVESGGGLVQAGGSLRLSCAASGSMLKSYAMGWYIQAPGKESELVAAITYRDGSTYYADSVKGRFTISRDNAKNTVYLQMNSLKPEDTAVYYCNARWARGRYAQYGGLDREYDYWGQGTQVTVSS | high polyreactivity
41 | QVQLVESGGGLVQAGGSLRLSCAASGFIIDANTMGWYRQAPGKERELVAAINESGGSTYYADSVKGRFTISRDNAKNTVYLQMNSLKPEDTAVYYCAADPTWDYGWSGYPYYYYWGQGTQVTVSS | high polyreactivity
42 | QVQLVESGGGLVQAGGSLRLSCAASGFISSHYAMGWYRPAPGKEWEVVATISSGGSTYADSVKGRFTISRDNAKNTVYLQMNSLKPEDTAVYYCAKRYYKSLNRDEFDSWGQGTQVTVSS | high polyreactivity
43 | QVQLVESGGGLVQAGGSLRLSCAASGSIFEYNAMGWYRPAPGKERELVAAISWSSGTTYYADSVKGRFTISLDNAKNSVYLQMNSLKPEDTAVYYCNAGRYGKDSDYWGQGTQVTVSS | low polyreactivity
